Laboratory results taken from patent publication US12692524B2, “Sialyltransferases and their use in producing sialylated oligosaccharides” (Chr. Hansen A/S, priority 2017, dated 2026).

B1: SiaT14: sialyltransferase of Haemophilus-somnus-2336, acc. ACA31578, SEQ ID NO: 26 (protein, listed as Haemophilus somnus)
chain: MFREDNMNLIICCTPLQVIIAEKIIERYPEQKFYGVMLESFYNDKFDFYENKLKHLCHEFFCIKIARFKLERYKNLLSLLKIKNKTFDRVFLANIEKRYIHIILSNIFFKELYTFDDGTANIAPNSHLYQEYDHSLKKRITDILLPNHYNSNKVKNISKLHYSIYRCKNNIIDNIEYMPLFNLEKKYTAQDKSISILLGQPIFYDEEKNIRLIKEVIAKFKIDYYFPHPREDYYIDNVSYIKTPLIFEEFYAERSIENSIKIYTFFSSAVLNIVTKENIDRIYALKPKLTEKAYLDCYDILKDFGIKVIDI
B2: SiaT13: sialyltransferase of Streptococcus agalactiae, acc. AB050723, SEQ ID NO: 17 (protein, listed as Streptococcus agalactiae)
chain: MTNRKIYVCHTLYHLLICLYKEEIYSNLEIILSSSIPDVDNLEKKLKSKTINIHILEESSGESEELLSVLKDAGLSYSKFDSNCFIFNDATPIGRTLIKHGIYYNLIEDGLNCFTYSIFSQKLWKYYVKKYILHKIQPHGFSRYCLGIEVNSLVNLPKDPRYKKFIEVPRKELFDNVTEYQKEMAINLFGAVRVSIKSPSVLVLTQPLSIDKEFMSYNNKIETSEEQFNFYKSIVNEYINKGYNVYLKVHPRDVVDYSKLPVELLPSNVPMEIIELMLTGRFECGITHSSTALDFLTCVDKKITLVDLKDIK
B3: SiaT15: sialyltransferase of Haemophilus ducreyi 35000HP, acc. AF101047, SEQ ID NO: 14 (protein, listed as Haemophilus ducreyi)
chain: MKEIAIISNQRMFFLYCLLTNKNVEDVFFIFEKGAMPNNLTSISHFIVLDHSKSECYDFFYFNFISCKYRLRGLDVYGADHIKGAKFFLERHRFFVVEDGMMNYSKNMYAFSLFRTRNPVILPGGFHPNVKTIFLTKDNPIPDQIAHKREIINIKTLWQAKTATEKTKILSFFEIDMQEISVIKNRSFVLYTQPLSEDKLLTEAEKIDIYRTILTKYNHSQTVIKPHPRDKTDYKQLFPDAYVMKGTYPSELLTLLGVNFNKVITLFSTAVFDYPKEKIDFYGTAVHPKLLDFFD
B4: SiaT2: sialyltransferase of Campylobacter jejuni strain OH4384, acc. AF130466, SEQ ID NO: 10 (protein, listed as Campylobacter jejuni)
chain: MTRTRMENELIVSKNMQNIIIAGNGPSLKNINYKRLPREYDVFRCNQFYFEDKYYLGKKIKAVFFNPGVFLQQYHTAKQLILKNEYEIKNIFCSTFNLPFIESNDFLHQFYNFFPDAKLGYEVIENLKEFYAYIKYNEIYFNKRITSGVYMCAIAIALGYKTIYLCGIDFYEGDVIYPFEAMSTNIKTIFPGIKDFKPSNCHSKEYDIEALKLLKSIYKVNIYALCDDSILANHFPLSININNNFTLENKHNNSINDILLTDNTPGVSFYKNQLKADNKIMLNFYNILHSKDNLIKFLNKEIAVLKKQTTQRAKARIQNHLSYKLGQALIINSKSVLGFLSLPFIILSIVISHKQEQKAYKFKVKKNPNLALPPLETYPDYNEALKEKECFTYKLGEEFIKAGKNWYGEGYIKFIFKDVPRLKREFEKGE
B5: SiaT16: sialyltransferase of Haemophilus ducreyi 35000HP, acc. AAP95068, SEQ ID NO: 27 (protein, listed as Haemophilus ducreyi)
chain: MLIQQNLEIYLDYATIPSLACFMHFIQHKDDVDSIRLFGLARFDIPQSIIDRYPANHLFYHNIDNRDLTAVLNQLADILAQENKRFQINLHLNLFHSIDLFFAIYPIYQQYQHKISTIQLQLYDDGSEGIVTQHSLCKIADLEQLILQHKNVLLELLTKGTANVPNPTLLRYLWNNIIDSQFHLISDHFLQHPKLQPLKRLLKRYTILDFTCYPRFNAEQKQLLKEILHISNELENLLKLLKQHNTFLFTGTTAFNLDQEKLDLLTQLHILLLNEHQNPHSTHYIGNNYLLLIKGHANSPALNHTLALHFPDAIFLPANIPFEIFAMLGFTPNKMGGFASTSYINYPTENINHLFFLTSDQPSIRTKWLDYEKQFGLMYSLLAMQKINEDQAFMCTIHN
B6: SiaT10: sialyltransferase of Pasteurella multocida PM70, acc. AAK02272, SEQ ID NO: 4 (protein, listed as Pasteurella multocida)
chain: MKTITLYLDPASLPALNQLMDFTQNNEDKTHPRIFGLSRFKIPDNIITQYQNIHFVELKDNRPTEALFTILDQYPGNIELDIHLNIAHSVQLIRPILAYRFKHLDRVSIQRLNLYDDGSMEYVDLEKEENKDISAEIKQAEKQLSHYLLTGKIKFDNPTIARYVWQSAFPVKYHFLSTDYFEKAEFLQPLKEYLAENYQKMDWTAYQQLTPEQQAFYLTLVGFNDEVKQSLEVQQAKFIFTGTTTWEGNTDVREYYAQQQLNLLNHFTQAGGDLFIGDHYKIYFKGHPRGGEINDYILNNAKNITNIPANISFEVLMMTGLLPDKVGGVASSLYFSLPKEKISHIIFTSNKQVKSKEDALNNPYVKVMRRLGIIDESQVIFWDSLKQL

How the values were obtained:
[1] = In vivo screening in E. coli #1363/#1730 with lactose as acceptor, sialyllactose identified by TLC; type: cell-based, Escherichia coli BL21(DE3); conditions: 1.5 mM lactose, 72 to 96 hours, qualitative via TLC
Experimental: Escherichia coli BL21(DE3) #1363 and #1730 harbouring plasmids encoding for 100 sialyltransferases were grown at 30° C. in 100 ml shake flasks filled with 20 ml of mineral salts medium (Samain et al., J. Biotech. 1999, 72:33-47) supplemented with 2% (wt/vol) glucose, ampicillin 100 μg ml^−1, kanamycin 15 μg ml^−1 and zeocin 40 μg ml^−1. When the cultures reached an OD600 of 0.1 to 0.3, gene expression was induced by addition of 0.3 mM IPTG. After an incubation for one hour, 1.5 mM lactose was added to #1363 cultures whereas 1.5 mM lactose as well as 1.5 mM sialic acid was added to #1730 cultures. The incubation continued for 72 to 96 hours. Then, cells were harvested by centrifugation and mechanically disrupted in a defined volume using glass beads. Subsequently, samples were applied to thin layer chromatography (TLC) on Silica Gel 60 F254 (Merck KGaA, Darmstadt, Germany). A mixture of butanol:acetone:acetic acid:H2O (35/35/7/23 (v/v/v/v)) was used as mobile phase. For detection of the separated substances, the TLC plate was soaked with thymol reagent (0.5 g thymol solved in 95 ml ethanol, 5 ml sulfuric acid added) and heated.
In the entire screening, thirty two genes were identified to encode for α-2,3-sialyltransferases, thus producing 3′-SL. 19 enzymes synthesized 6′-SL and were depicted as α-2,6-sialyltransferases. An α-2,3- as well as an α-2,6-sialyltransferase activity could only be observed for 3 enzymes. […] The screening appeared highly accurate since the described activities of extensively characterized sialyltransferases, e. g. […] Regarding the product formation, the experimental setting allowed a semi-quantitative comparison of the screened enzymes. But to achieve deeper knowledge about their kinetic properties, the 3 potentially best performing α-2,3- and α-2,6-sialyltransferases were applied to in vitro assays.

[2] = In vitro sialylation of LNT by protein extracts, LST-a/-b quantified by LC-MS/MS; type: biochemical; conditions: 5 mM LNT, 10 mM CMP-Neu5Ac, 16 hours, LC-MS/MS; relative quantity; n.d.: not detectable
Experimental: Escherichia coli BL21(DE3) harbouring plamids encoding for 100 sialyltransferases were grown at 30° C. in 100 ml shake flasks filled with 20 ml of 2YT medium supplemented with ampicillin 100 μg ml^−1. When the cultures reached an OD600 of 0.1 to 0.3, gene expression was induced by addition of 0.3 mM IPTG and the incubation was continued for 12 to 16 hours. Cells were harvested by centrifugation and mechanically disrupted in a defined volume of 50 mM Tris-HCl pH7.5 using glass beads. The protein extract was kept on ice until the assay started. The in vitro assay was carried out in a total volume of 25 μl including 50 mM Tris-HCl pH7.5, 5 mM MgCl2, 10 mM CMP-Neu5Ac and 5 mM LNT. The assay started with the addition of 3 μl protein extract and continued for 16 hours. Product formation was determined by mass spectrometry.
Mass spectrometry analysis was performed by MRM (multiple reaction monitoring) using a LC Triple-Quadrupole MS detection system. Precursor ions are selected and analyzed in quadrupole 1, fragmentation takes place in the collision cell using argon as CID gas, selection of fragment ions is performed in quadrupole 3. Chromatographic separation of lactose, 3′-Sialyllactose and 6′-Sialyllactose after dilution of culture supernatant 1:100 with H2O (LC/MS Grade), was performed on a XBridge Amide HPLC column (3.5 μm, 2.1×50 mm (Waters, USA) with a XBridge Amide guard cartridge (3.5 μm, 2.1×10 mm) (Waters, USA). Column oven temperature of the HPLC system was 50° C. The mobile phase was composed of acetonitrile:H2O with 10 mM ammonium acetate. A 1 μl sample was injected into the instrument; the run was performed for 3.60 min with a flow rate of 400 μl/min. 3′-Sialyllactose and 6′-Sialyllactose were analyzed by MRM in ESI positive ionization mode. The mass spectrometer was operated at unit resolution. Sialyllactose forms an ion of m/z 656.2 [M+Na]. The precursor ion of Sialyllactose was further fragmented in the collision cell into the fragment ions m/z 612.15, m/z 365.15 and m/z 314.15. Collision energy, Q1 and Q3 Pre Bias were optimized for each analyte individually. Chromatographic separation of lactose, LNT-II, LNT and LST-a or -b after dilution of particle-free biocatalysis-reaction or crude extract, respectively, 1:50 with H2O (LC/MS Grade), was performed on a XBridge Amide HPLC column (3.5 μm, 2.1×50 mm (Waters, USA) with a XBridge Amide guard cartridge (3.5 μm, 2.1×10 mm) (Waters, USA). Column oven was run at 35° C. The mobile phase was composed of acetonitrile:H2O with 0.1% ammonium hydroxide. A 1 μl sample was injected into the instrument; the run was performed for 3.50 min with a flow rate of 300 μl/min. Lactose, LNT-II, LNT as well as LST-a and -b were analyzed by MRM in ESI negative ionization mode. The mass spectrometer was operated at unit resolution. Lactose forms an ion of m/z 341.00 [M−H]. The precursor ion of Lactose was further fragmented in the collision cell into the fragment ions m/z 179.15, m/z 161.15 and m/z 101.05. LNT-II forms an ion of m/z 544.20 [M−H]. The precursor ion of LNT-II was further fragmented into the fragment ions m/z 382.10, m/z 161.00 and m/z 112.90. LNT forms an ion of m/z 706.20 [M−H]. The precursor ion of LNT was further fragmented into the fragment ions m/z 382.10, m/z 202.10 and m/z 142.00. LST-a and -b forms an ion of m/z 997.20 [M−H]. The precursor ion of LST-a and-b was further fragmented into the fragment ions m/z 290.15, m/z 202.15 and m/z 142.15. Collision energy, Q1 and Q3 Pre Bias were optimized for each analyte individually. Quantification methods were established using commercially available standards (Carbosynth, Compton, UK).
Twenty eight genes were identified to produce LST-a whereas only 6 enzymes synthesized LST-b. […] Irrespectively of the protein overexpression level, sialyltransferases that produced best were selected for determination of Km and Vmax.

Row | Molecule | Production of sialyllactose in-vivo [1] | Relative efficacy of sialyltransferases regarding in-vitro production of sialyllacto-N-tetraoses: LST-a [2]
1 | B1 | 3′-SL | 2
2 | B2 | 3′-SL | 24
3 | B3 | 3′-SL | 204
4 | B4 | 3′-SL | 749
5 | B5 | 3′-SL | 1
6 | B6 | 3′-SL, 6′-SL | 3.18 × 10^3
